Measurements taken from the DeepSol protein solubility set.

assay: soluble on expression in E. coli; label from the status in PepcDB or PDB records

| Sequence | soluble on expression in E. coli |
| --- | --- |
| MKMINKLIVPVTASALLLGACGASATDSKENTLISSKAGDVTVADTMKKIGKDQIANASFTEMLNKILADKYKNKVNDKKIDEQIEKMQKQYGGKDKFEKALQQQGLTADKYKENLRTAAYHKELLSDKIKISDSEIKEDSKKASHILIKVKSKKSDKEGLDDKEAKQKAEEIQKEVSKDPSKFGEIAKKESMDTGSAKKDGELGYVLKGQTDKDFEKALFKLKDGEVSEVVKSSFGYHIIKADKPTDFNSEKQSLKEKLVDQKVQKNPKLLTDAYKDLLKEYDVDFKDRDIKSVVEDKILNPEKLKQGGAQGGQSGMSQ | soluble |
| MQLTPLQQAKPEKEEISPYAINNILSSTQSSPDNGNEADDKENSSVRRNTFPASSASTKKPRGTPYDRTNTPMTVVPQMPQFAPDFSNYNLTMNAWSEFFKKDRCMVCGDNSTGYHYGVQSCEGCKGFFRRSVHKNIAYVCTKGENCTFSYENCAANRGVRTRCQACRFAKCLAVGMNRDNVRVNKETDKDVKPSVASPNFEMTSQVKELTAAFVANMPCSTHLTSGTHAIGAIKKFIESVPALSSLLPKDEKALEMSIQKVMSGILAIRAAFTFDPITFYSCENPVNLLRGGIRNTVFNDCEVALLSGIHILQIVNGGVAEIFTSYCQGLRHQLSQTHLQEIGLCDRLLMRLGPYLNQ | not soluble |
| MAEDEIVVEEEQSQPQEITPVPPSSSSSPSLVVEDDDEMKLKHLEFIQVAAVYFAACFSTLYELAKDNAGPLKLGVENIEDCVRTVLAPLYEKFHDVPFKLLLFVDRKVDDVFFDVETYVPSLVKQASSQALTVATEVQRTGVVDTTKSIARSVRDKYEPAAEYYAATLWRLLNQLPLFPEVAHLVIPTAFYWSEKYNDAVRYVGDRDYFGAEYLPMIPIEKISDILEQDQCRAD | not soluble |
| MTSSNKLHEVDKDQQSAFDITGRYQTISAHPTKEFSKPTLAAGAVLWRHSSTITENPAVEFAVIHRPHYDDWSLAKGKVDPGESLPVTAEREIREETGHHVHLGKLLGKVSYPVGERTKVVYYWIAQVHDEAFEENNEVDELRWLPYTEARELLSYDVDRLVLDKAYKRLALPTTTRVILVRHAKAHQRHNWAGNDSIRPLEKKGQRQADLLGPMLAAYGPTSIHSATPARCQQTAAPLSELTGLEVVVDDRFDDEAWLSRMTVAQKACEELIATPGTHVVVSQGLFIPDAIAWLSAQGRLPLETIEAKKASAWVLSFHEGELTGADYLVSPLGVK | not soluble |
| MSLEDFAESEGGVKKKIPISLVTIRSAKLFDIPFIMRIEQASFREKYPRGLFLTFLESNPDTFLVAEYNGKVIGYVMGYLRPDMEGHIMSIAVDPNYRGNGIGKALMIAVINKLFKKGARWIGLEVRVSNVIAINLYKKLGFKITKRIYSYYSDGEDAFYMILTPEDWKRVNLEEGHHHHHH | soluble |
| MGHHHHHHSHMVLLHVKRGDESQFLLQAPGSTELEELTVQVARVYNGRLKVQRLCSEMEELAEHGIFLPPNMQGLTDDQIEELKLKDEWGEKCVPSGGAVFKKDDIGRRNGQAPNEKMKQVLKKTIEEAKAIISKKQVEAGVCVTMEMVKDALDQLRGAVMIVYPMGLPPYDPIRMEFENKEDLSGTQAGLNVIKEAEAQLWWAAKELRRTKKLSDYVGKNEKTKIIAKIQQRGQGAPAREPIISSEEQKQLMLYYHRRQEELKRLEENDDDAYLNSPWADNTALKRHFHGVKDIKWRPR | not soluble |
| MHGRLKVKTSEEQAEAKRLEREQKLKLYQSATQAVFQKRQAGELDESVLELTSQILGANPDFATLWNCRREVLQHLETEKSPEESAALVKAELGFLESCLRVNPKSYGTWHHRCWLLSRLPEPNWARELELCARFLEADERNFHCWDYRRFVAAQAAVAPAEELAFTDSLITRNFSNYSSWHYRSCLLPQLHPQPDSGPQGRLPENVLLKELELVQNAFFTDPNDQSAWFYHRWLLGRAEPHDVLCCVHVSREEACLSVCFSRPLTVGSRMGTLLLMVDEAPLSVEWRTPDGRNRPSHVWLCDLPAASLNDQLPQHTFRVIWTGSDSQKECVLLKDRPECWCRDSATDEQLFRCELSVEKSTVLQSELESCKELQELEPENKWCLLTIILLMRALDPLLYEKETLQYFSTLKAVDPMRAAYLDDLRSKFLLENSVLKMEYADVRVLHLAHKDLTVLCHLEQLLLVTHLDLSHNRLRALPPALAALRCLEVLQASDNALENVDGVANLPRLQELLLCNNRLQQSAAIQPLVSCPRLVLLNLQGNSLCQEEGIQERLAEMLPSVSSILT | soluble |
| MSLRGRTSTLKVAILCFEKDRPKLEALKEILGRSYEVEFVDYSKDVWDDVLQYDCIVAYLASGIVVRGICGRLRGKWKDPAVIVLDKPLKHAVVMLGGHHGGNEVAKKLEEAGLKAVITTAMEFTEGYSVGVGFRKNATADEILEAIAMALEEVGGRMEEIRVISTVDAKRDSAIVEVANRLKRPLIFVRAEEINSMDIRETKAVKIGVKNVAEACAIYASNSGELILPKRVYGGVTVAIAWEGHHHHHH | soluble |
| MAHHHHHHMRADSVSQTRKQQPNSSALGDDGDDEGANGEVEGRPMRQCMHITDKEIVIKLQNWFCDSNEIAGEWEAAGKTESRRSGASSNLEISQTIPFHSSHKSSLGKSASSSTLRPSNTCIPADLSAPLDGAPSLEVSTTSETRKIHSARGPRADERASRPYRTPSTDAVRYCAVYLRHFATIHQQHPYENSRQEQLLPTLAPEPLTAPLVALLTPWERNFIYRDILGQTEEQVSRAMEIVEHSPNMSYTYPTPFLKVSGISRVLLVEPPAAERVALLLRVMRAAEVLQVPSLRSLCAAWCADFIVRASYGARDHFEAAALVRRCFQVQNDWSRKEMDCLKLENEWPVNEEEY | not soluble |
| MIVRGGGDLATGVIQKLWHVGFKILVLETECPLAIRRTVSVCDAIFQKEQRVEDLVAVRITSLKDCAKCWQQNKLPVFVDQTASAIQQLKPLIVIDAILAKKNLGTHRGMAPITIALGPGFSAPQDVDVVIETMRGHRLGRLYFEGTALPNTGIPGEIGGKSAERVVHAPASGQVTHLKNIGDLVLKGEALFLIDQVPVYSPLTGTLRGLISEKVTCYQGLKCADVDPRPVEKVDCLTISDKARALGGAVLEAIFMIGRRKNVL | not soluble |
| MTTLLIVPGFGGSGPLHWQSWIAQKYTSSLWVNDLPLLEPKIHIWADAISRAMDNIEGKILILAHSFGCLASSLAIARHPQRVVAAILVAPASPESFSENGHILPEHDDTPTIRNLLPKQTLGICGLVIASENDPWMPFNQAASLAKSFGLPTINLGLSGHINVDSGHGQWPLIDVLVGNFLFQNENVPPIPSIKTAQDKTTPHLFPNGILEHHHHHH | not soluble |
| AIARALESTPLTGDVDWKSPLGSRSTWARLREQTRHCTFYRTYCFKASLKQLEEVTEEHVTYVGDCAALPPSPFLCVLLAYDCCSPSREEVAAHLDCSKNVYWRAIVATWIRWKESRAEQVYQLLDPLYRDYRPIKVRQKDNSYHNSYLDVFIDQLLRYRCALVSLEEPFVLDVIPFPHLPPRYELEARGVLPQREYAAPADDDDDDDAVSRPRLQQ | soluble |
| MTQLCSDVRVSPLPGTAKVGDTYILFEHHGPWSHDILDGGTFDKETSAALKAMGCGFYLIRRHGREGRIERPKKTAYLVFGSAGIAEKLMVDDVTDLLKLDVSGPGKNRQFGAEQEAQPIILVCTHAKRDACCAIKGRPMAQALTEEFPDSPVWECSHTKGHRFAPSMVLMPWGYTWGQLNKPAAFDMYRYAQRGQLFLPGNRGRGIWPMKGQIAEVAVAQQLAQEGETVTLGQLRVESIEEAQAHVADSHTARTWTVFLREEVVAGIVDSCHKPPKTGTAWVADRVKENGALEHHHHHH | soluble |
| MYLYIETLKQRLDAINQLRVDRALAAMGPAFQQVYSLLPTLLHYHHPLMPGYLDGNVPKGICLYTPDETQRHYLNELELYRGMSVQDPPKGELPITGVYTMGSTSSVGQSCSSDLDIWVCHQSWLDSEERQLLQRKCSLLESWAASLGVEVSFFLIDENRFRHNESGSLGGEDCGSTQHILLLDEFYRTAVRLAGKRILWNMVPCDEEEHYDDYVMTLYAQGVLTPNEWLDLGGLSSLSAEEYFGASLWQLYKSIDSPYKAVLKTLLLEAYSWEYPNPRLLAKDIKQRLHDGEIVSFGLDPYCMMLERVTEYLTAIEDFTRLDLVRRCFYLKVCEKLSRERACVGWRREVLSQLVKEWEWDDARLAMLDNRANWKIDQVREAHNELLDAMMQSYRNLIRFARRNNLSVSASPQDIGVLTRKLYAAFEALPGKVTLVNPQISPDLSEPNLTFIYVPPGRANRSGWYLYNRAPNIESIISHQPLEYNRYLNKLVAWAWFNGLLTSRTRLYIKGNGVVDLPKLQEMVADVSHHFPLRLPAPTPKALYSPCEIRHLAIIVNLEYDPTAAFRNQVVHFDFRKLDVFSFGENQNCLVGSVDLLYRNSWNEVRTLHFNGEQSMIEALKTILGKMHQDAAPPDSVEVFCYSQHLRGLIRTRVQQLVSECIELRLSSTRQETGRFKALRVSGQTWGLFFERLNVSVQKLENAIEFYGAISHNKLHGLSVQVETNHVKLPAVVDGFASEGIIQFFFEETQDENGFNIYILDESNRVEVYHHCEGSKEELVRDVSRFYSSSHDRFTYGSSFINFNLPQFYQIVKVDGREQVIPFRTKSIGN | not soluble |
| MGSDKIHHHHHHMTNIGETIHQIRLSKGLTQQEVYSGIISRSFASRFESGANDIGASKLFAILDNLAISADELRFIHQNYQPSAYDQALWTIRHAYETLNFPALATWIREHRHSPHAYEQLIASYASILMLSYDHRSIGITTTTQPAFDHLRQAKTWTLQELKLVPVLIPIIASIDGLAALTPLTTRMAANCASYQTAWGDPFHVSNDLLDFYGSLFQTKLNFHDFQSAQNLKTKFTAIDSHQLNWDGRLSQQFWLGIWNLYFGDWQIGNQLLDEVSVLETHHHPRIDNTLFAIRNVRTKQAQTYRQSHQSHKHL | not soluble |
| MSLVIVMYSIKMRASKNGKHISGAERIVNKDEIEETVKELVRRALTHENGTPDFINIKIEEIKEEITYINHLPIKTIHCKDKEEARETAKKILRNEGIPDSVIDYAYEIIDKGGMRGAAILNLKGERLEPDKERGVRVKNIDTTKELKEKILKENLGTERTVDAIAIASKVIHLGVIAELCTSDNKSYTTGYVATKKGYFRITNLKKEGESGGRVFFVKDDVDIEDLINKLENKPEGHHHHHH | soluble |
| MKRLIICNGNKLTVCTQAISSGGIVEKYTPIFSLTKESDNELTLELSGVARGYYIIPSELTSSQARAAHLITLLTRAEESQTTDMHKILNSFVSGKITSGSMFNFENDGSFKREPEEAYNLINKI | not soluble |
| MGSDKIHHHHHHMKAVVQQWYTHPAVRAALTDLADYRPTLATAIEIQQVPAPTFAERPRSLLVSQRMQALGLHDVEVDDLGNVYGRRPGSTARPGLLISAHLDTVFPADTDLSIRYEGERVYGPGIGDNSAGVAGLLRLAEMYQRFDLPNTSDIWFVANVGEEGLGDLRGMRRVVERLRTRLSTVVVIEGCDFGSLHHQAIGVRRFRIEATGPGGHSWGNFGTPSAIHVLVRLAARLTELQVPSSPRTTFNIGTISGGTSVNTIAQHANMLLDLRSVSSAALTDLVNEVYRLVEEVALEYPDVHIQLTKVGDRPSGAIPREHPLVQAAVAAYQMVGAQISFQQSSTDANIPLSLGMPAVCVGLTDGGNAHRTDEYILPFNLSRGMQALLLLSLAANTLETI | not soluble |
| MAYELPELPYAYDALEPHIDKETMTIHHTKHHNTYVTNLNKAVEGNTALANKSVEELVADLDSVPENIRTAVRNNGGGHANHKLFWTLLSPNGGGEPTGALAEEINSVFGSFDKFKEQFAAAAAGRFGSGWAWLVVNNGKLEITSTPNQDSPLSEGKTPILGLDVWEHAYYLNYQNRRPDYISAFWNVVNWDEVARLYSERK | soluble |
| PMSEIVRVHASSGTTGKPTVVGYTRRDIAMWSEVVARALNCAGASREDFIQIAYGYGLFTGGLGLHYGSEKLGATVIPISGGNTQKQVQLMADFKTTVLACTPSYALYLAESLEEAGMTTDDISLRVGIFGAEPWTPGMRKEIEIKLGIKAMDIYGLSEVMGPGVACDCEYQAGLHVN | not soluble |
